Measured values reported in the supplement of paper PMC7125110.
± gives the standard error. Fewer inactive variants are shown than the library holds.

B1: glmS ribozyme (parent)
chain: AUAAAAGCGCCAGAACUACAGAAAUGUAGUUGACGAGGAGGAGGUUUAUCGAAUUUUCGGCGGAUGCCUCCAAA

Variants of: B1
Experiment: self-cleavage kobs at 2500 uM GlcN6P; higher = faster cleavage; RNA array
Conditions: with glucosamine-6-phosphate
How it was run: (§1)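 Barcoded ribozyme variants, transcribed in situ by E. coli RNA polymerase on sequenced MiSeq chips, were followed via a hybridised Cy3 probe at 37 °C. Glucosamine-6-phosphate ranged from 40 μM to 10 mM in HEPES/KCl/Mg(OAc)2 buffer. kobs came from decay fits to per-tile medians, and kcat and KM from weighted Michaelis–Menten fits.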

Variant | self-cleavage kobs at 2500 uM GlcN6P
A15G G59U G63U | < 1e-05 s⁻¹
A14G G40C G41C A48G C71G | < 1e-05 s⁻¹
G29U A33G G40A | < 1e-05 s⁻¹
G13C C61A | < 1e-05 s⁻¹
A15U G41A C50G C71U | < 1e-05 s⁻¹
U30C U45A U55A C67U | 0.00196 ± 0.00072 s⁻¹
C16G G66A U69G | 5.74e-05 ± 2.8e-05 s⁻¹
G13U U31C C70U | 0.000186 ± 4.5e-05 s⁻¹
G13A U46C G60A | < 1e-05 s⁻¹
A15G G38U G60A | < 1e-05 s⁻¹
A15C U69A | 4.7e-05 ± 1.5e-05 s⁻¹
U30C U47A U57C | < 1e-05 s⁻¹
A15U U55G G66U | 7.43e-05 ± 1.6e-05 s⁻¹
A14G G32U U45A | 0.00147 ± 0.00059 s⁻¹
U30A A33U A39G G44C U47G A52U | < 1e-05 s⁻¹
G13C G62C A64C | < 1e-05 s⁻¹
A15G G35C G37U G43C | < 1e-05 s⁻¹
A15C U30C C68G | 0.000192 ± 6.4e-05 s⁻¹
A14G A36C U54C | < 1e-05 s⁻¹
C16A U56G C70U | 0.000265 ± 6e-05 s⁻¹
A15G U30C G51U U65C | < 1e-05 s⁻¹
G13C G29U C50A U56C G62C U69A | 0.000141 ± 5.2e-05 s⁻¹
A15U C50G C70A | 0.000427 ± 0.00013 s⁻¹

Variant | self-cleavage kobs at 2500 uM GlcN6P
A14C A15G U46C C61G | < 1e-05 s⁻¹
U31C A42U A52C C71A | < 1e-05 s⁻¹
A15U G51C C71U | < 1e-05 s⁻¹
A14U U30A A39C | 2.93e-05 ± 1.5e-05 s⁻¹
G29U G41U C67G | < 1e-05 s⁻¹
C16U A36C A52C C61A | < 1e-05 s⁻¹
G13C A36C C71U | < 1e-05 s⁻¹
C16A U30A U65A | 5.07e-05 ± 1.8e-05 s⁻¹
A15C C16G A39C U46G U56C | < 1e-05 s⁻¹
U30A G63A U69C | < 1e-05 s⁻¹
A12U G13U A33G A39U A48U | < 1e-05 s⁻¹
U30C G41C U45G | < 1e-05 s⁻¹
C16U U56C G63A G66U | < 1e-05 s⁻¹
G13A G32C U54C | 0.000273 ± 9.2e-05 s⁻¹
G13C U31A A64G | 9.93e-05 ± 3e-05 s⁻¹
A15C G43U C67A | 0.000235 ± 7.7e-05 s⁻¹
A14U G44A C50A | < 1e-05 s⁻¹
G13A G44C U46A A53G | < 1e-05 s⁻¹
A15U C61U G62U | < 1e-05 s⁻¹
A15U G40U U49A G60U | < 1e-05 s⁻¹
G29U U49A C70G | 5.3e-05 ± 1.9e-05 s⁻¹
G29C G59A G66C | < 1e-05 s⁻¹
G13U U45A A52G | 5.37e-05 ± 2.1e-05 s⁻¹

Variant | self-cleavage kobs at 2500 uM GlcN6P
A14U A33C U55G | 7.4e-05 ± 2.1e-05 s⁻¹
A12U G35A A39G U45C C61U | < 1e-05 s⁻¹
A12U C50G G66C C70A | 5.12e-05 ± 2e-05 s⁻¹
G29U G32U A42G C71A | 4.56e-05 ± 1.7e-05 s⁻¹
G13U A42C C71G | < 1e-05 s⁻¹
A14U A39G G41U | 0.000106 ± 2.6e-05 s⁻¹
C16A G38A U55A | < 1e-05 s⁻¹
A12U U54A C58U | 4.04e-05 ± 1.6e-05 s⁻¹
U30G G40U U57G | < 1e-05 s⁻¹
G13C A15C G32U G44A G59U | < 1e-05 s⁻¹
U30C G35A G37U C70A | 0.000153 ± 4.9e-05 s⁻¹
C16U C58U U69G | 7.44e-05 ± 2.1e-05 s⁻¹
A15C G41U U57C A64U | < 1e-05 s⁻¹
A14C U31A U54C U57A | 0.000121 ± 3.3e-05 s⁻¹
U30C G35U G51A A53U U56C | < 1e-05 s⁻¹
A14G A15U U31G G43U U45A | < 1e-05 s⁻¹
A15U G38U U69G | 0.000183 ± 4.2e-05 s⁻¹
A14U U30A C70U | 0.000871 ± 0.00021 s⁻¹
C16U C50G U54A | 9.89e-05 ± 3.1e-05 s⁻¹
A14U A15U U56A G59C G63C | < 1e-05 s⁻¹
C16U A42G U57C | 0.000189 ± 6.6e-05 s⁻¹
A14C G35A A52G | < 1e-05 s⁻¹
U30C G35C C50A C68A | < 1e-05 s⁻¹

Variant | self-cleavage kobs at 2500 uM GlcN6P
C16U C34A G41A C68U C71A | < 1e-05 s⁻¹
A24C G40U | 0.00193 ± 0.0007 s⁻¹
G29C C34G G51U U54A U65A C70U | < 1e-05 s⁻¹
C16G U65A C71U | 0.000341 ± 8.1e-05 s⁻¹
U31C A39G U49G C70U | 2.73e-05 ± 1.4e-05 s⁻¹
U31A A52G C70G | 5.02e-05 ± 1.1e-05 s⁻¹
A14U G40A G43A U45G | 0.000402 ± 8.4e-05 s⁻¹
G13U G29C G40C C50U A52C | < 1e-05 s⁻¹
C16U G29A G41U G51U | < 1e-05 s⁻¹
A14U A48G C58A A64U C70G | 5.92e-05 ± 2.4e-05 s⁻¹
A15C G44A C58G G62U | < 1e-05 s⁻¹
G13U G35A C67A | < 1e-05 s⁻¹
G13A G51C C67G | < 1e-05 s⁻¹
A14U G29U A48U A53U G62U | < 1e-05 s⁻¹
U30G U46C C50A A64C | < 1e-05 s⁻¹
G13A A39U A64U | < 1e-05 s⁻¹
A15U C16U A33U A42U U57G G62C A64U | < 1e-05 s⁻¹
A15U U55G A64U C71U | < 1e-05 s⁻¹
A15C U47G C68G | 5.59e-05 ± 1.6e-05 s⁻¹
U30C G40C G62A | < 1e-05 s⁻¹
G29A G37U U57C | < 1e-05 s⁻¹
U30G A42G G66U C71A | 4.6e-05 ± 2.2e-05 s⁻¹
C16A U31G G32U | 9.46e-05 ± 1.9e-05 s⁻¹

Variant | self-cleavage kobs at 2500 uM GlcN6P
U30G A42C A52C G60U | < 1e-05 s⁻¹
A14G G38A G40A | < 1e-05 s⁻¹
C16A G63C C67G | < 1e-05 s⁻¹
G13A A14U A53U U54C G60A | < 1e-05 s⁻¹
U30C U31A A36G C50A U57G | < 1e-05 s⁻¹
G13U U54A U65A | 5.74e-05 ± 1.5e-05 s⁻¹
C16U C34A A36C C58A | < 1e-05 s⁻¹
A15U A52U C67G | 0.000122 ± 3.6e-05 s⁻¹
G21U G29C A42G | 0.000483 ± 0.00016 s⁻¹
A15U U49G G66U | < 1e-05 s⁻¹
A15U G29U C61U | < 1e-05 s⁻¹
G29A U69C C70U | 5.97e-05 ± 1.6e-05 s⁻¹
A14U G37C A42C | < 1e-05 s⁻¹
G26U G29U U55A C70A | 8.18e-05 ± 2.7e-05 s⁻¹
G13A G32U A39U | 4.61e-05 ± 8.8e-06 s⁻¹
A15U C58G | 2.95e-05 ± 1e-05 s⁻¹
A12U U49G G59C | < 1e-05 s⁻¹
G29A A42C A64U | < 1e-05 s⁻¹
A14G G51C G62C U65A C68G C70A | < 1e-05 s⁻¹
G29C A36U A52G | < 1e-05 s⁻¹
C16G U54C C70U | 0.00152 ± 0.00038 s⁻¹
A14U U46C U47G | 8.01e-05 ± 2.2e-05 s⁻¹
G29C A39C A48U U49C U57A G60A C61A C67A | < 1e-05 s⁻¹

Variant | self-cleavage kobs at 2500 uM GlcN6P
A14C G43A C61U | < 1e-05 s⁻¹
C16G G29A G37A U49G C50U | < 1e-05 s⁻¹
U30A G38U G40C | < 1e-05 s⁻¹
A12U G40A U57A A64C | < 1e-05 s⁻¹
A15C U31G A53C | 0.000196 ± 3.5e-05 s⁻¹
G13U G37U U55G G66U | < 1e-05 s⁻¹
G29A A48U U69A | < 1e-05 s⁻¹
C16U U31C A53C U56A C70U | 0.000183 ± 4.6e-05 s⁻¹
C16G C50A C70A | 8.7e-05 ± 2.4e-05 s⁻¹
G13U U47A U56G | 0.000242 ± 6e-05 s⁻¹
A14C G26U G62U C68U | < 1e-05 s⁻¹
A12U G32A G60A | < 1e-05 s⁻¹
A14U U31A U69A | 0.000236 ± 5.6e-05 s⁻¹
A14G A53G G66A | 0.0162 ± 0.0057 s⁻¹
G13A A52U U54C | < 1e-05 s⁻¹
A14C U54A G59C C71U | < 1e-05 s⁻¹
A15U A39U U69C | 0.000466 ± 0.00018 s⁻¹
A14U U65A U69C | 0.000173 ± 4.9e-05 s⁻¹
U30G U55C U65A C71U | 8.23e-05 ± 1.7e-05 s⁻¹
A14G A36G U56G G59C G62U | < 1e-05 s⁻¹
G26U A48G | 7.11e-05 ± 1.8e-05 s⁻¹
A14U G38C A42U | < 1e-05 s⁻¹
C16U G32A G41A | 0.000133 ± 2.7e-05 s⁻¹

Variant | self-cleavage kobs at 2500 uM GlcN6P
A15G U47A C58G | 4.72e-05 ± 1.4e-05 s⁻¹
A22C C34G A42C C50U G66U C68U U69G C70G C71U | < 1e-05 s⁻¹
U31C A36U U47C | < 1e-05 s⁻¹
A14G G29A A36U | < 1e-05 s⁻¹
A15U U54G C58A | 3.84e-05 ± 1.4e-05 s⁻¹
C16G G44U C70A | < 1e-05 s⁻¹
A14C G29U A39C U46G U47A | < 1e-05 s⁻¹
C16A G41A A42U | < 1e-05 s⁻¹
A14G G35U G37A | < 1e-05 s⁻¹
C16G G37A A48G G60A U65G C67U | < 1e-05 s⁻¹
G13A G32U G35C A39C | < 1e-05 s⁻¹
G13U U30C G32C | 6.71e-05 ± 2.9e-05 s⁻¹
C16A A36U C68G | 0.000692 ± 0.0002 s⁻¹
A15G G32C C70G | < 1e-05 s⁻¹
G29C U46G U55G | 3.45e-05 ± 1.5e-05 s⁻¹
G26U U54C G59U U69G | < 1e-05 s⁻¹
A14G G37C A39G | 6.41e-05 ± 1.9e-05 s⁻¹
A14G U30C U47A | 0.000323 ± 8.4e-05 s⁻¹
C16A G66A C71G | 5.24e-05 ± 2.5e-05 s⁻¹
U30G A53U C58G | 0.000116 ± 3.9e-05 s⁻¹
A14C A39U G43U A64U | < 1e-05 s⁻¹

Variants of: B1
Experiment: self-cleavage kobs at 10000 uM GlcN6P; higher = faster cleavage; RNA array
Conditions: with glucosamine-6-phosphate
How it was run: as §1

Variant | self-cleavage kobs at 10000 uM GlcN6P
G13U U31C C70U | 0.000187 ± 3.2e-05 s⁻¹
A12U U54A C58U | 6.78e-05 ± 1.3e-05 s⁻¹
A14C U31A U54C U57A | 9.39e-05 ± 1.9e-05 s⁻¹
U30C G35U G51A A53U U56C | < 1e-05 s⁻¹
C16U A42G U57C | 0.00018 ± 4.1e-05 s⁻¹
C16G U65A C71U | 0.000346 ± 8.7e-05 s⁻¹
U31A A52G C70G | 6.16e-05 ± 1.8e-05 s⁻¹
C16U G29A G41U G51U | < 1e-05 s⁻¹
A14U G29U A48U A53U G62U | < 1e-05 s⁻¹
G29A U69C C70U | 7.72e-05 ± 1.5e-05 s⁻¹
A15U C58G | 4.63e-05 ± 1.2e-05 s⁻¹
C16U U31C A53C U56A C70U | 0.000335 ± 8.2e-05 s⁻¹
G13U U47A U56G | 0.000374 ± 6.2e-05 s⁻¹
A14C U54A G59C C71U | < 1e-05 s⁻¹
A14U U65A U69C | 0.000191 ± 3.3e-05 s⁻¹
A14U G38C A42U | < 1e-05 s⁻¹
C16U G32A G41A | 0.00033 ± 9.1e-05 s⁻¹
A14G U30C U47A | 0.000556 ± 8e-05 s⁻¹
